Assay results published in paper doi:10.1101/2021.09.16.460643 (bioRxiv, 2021).

T1: ETR1 fragment comprising both HK and RD domain (ETR1HK-RD) (Arabidopsis thaliana, UniProt P49333 324-738)
T1 sequence (looked up): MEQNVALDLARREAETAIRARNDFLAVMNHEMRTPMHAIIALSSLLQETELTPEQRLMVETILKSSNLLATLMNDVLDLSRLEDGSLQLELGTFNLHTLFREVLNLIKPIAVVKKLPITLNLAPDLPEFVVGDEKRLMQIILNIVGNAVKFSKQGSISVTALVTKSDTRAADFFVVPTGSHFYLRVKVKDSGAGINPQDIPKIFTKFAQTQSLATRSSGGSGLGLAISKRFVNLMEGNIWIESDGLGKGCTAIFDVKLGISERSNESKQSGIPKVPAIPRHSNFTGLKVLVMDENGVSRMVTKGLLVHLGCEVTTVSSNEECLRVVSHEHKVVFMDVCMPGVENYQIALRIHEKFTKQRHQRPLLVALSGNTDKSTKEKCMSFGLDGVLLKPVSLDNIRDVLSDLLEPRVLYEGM


Tests used:
[1] = target: receiver domain of ARABIDOPSIS … KINASE 5 (AHK5RD), labelled with Alexa Fluor-488 (Arabidopsis thaliana) (UniProt Q3S4A7); assay: MST
[2] = target: T1, ETR1 fragment comprising both HK and RD …; assay: MST

Kd [1] [µM] | Kd [2] [µM] | Molecule
166 |  | histidine kinase domain of ETHYLENE RESPONSE 1 (ETR1HK) (domain or fragment)
 | 167 ± 50 | receiver domain of ARABIDOPSIS … KINASE 5 (AHK5RD), labelled with Alexa Fluor-488 (domain or fragment, Arabidopsis thaliana, Alexa Fluor-488 label (site not stated; printed as Alexa-Fluor 484 in the anisotropy methods)) ETSKPKILLVEDNKINIMVAKSMMKQLGHTMDIANNGVEAITAINSSSYDLVLMDVCMPVLDGLKATRLIRSYEETGNWNAAIEAGVDISTSENEQVCMRPTNRLPIIAMTANTLAESSEECYANGMDSFISKPVTLQKLRECLQQYLH
